The values that follow come from the Human Domainome abundance scans (Beltran et al. 2025).

± gives the uncertainty stated by the source.

B1: Neutrophil cytosol factor 2, residues 456 to 514; numbered along this chain, P19878 (parent)
chain: LKKGSQVEALFSYEATQPEDLEFQEGDIILVLSKVNEEWLEGECKGKVGIFPKVFVEDC

In the series the parent is B1. Put plainly: abundance fitness (aPCA) (normalised: wild type 0, dead -1); higher = more abundant; growth selection in yeast, the domain comes from the species named. The conditions noted are these: Homo sapiens.
On to LKKGSQVEALFSYEATQPEDLEFQEKDIILVLSKVNEEWLEGECKGKVGIFPKVFVEDC [G26K], for which the abundance fitness was determined as 0.016 ± 0.3.
The value for LKKGSQVEALFSYEATQPEDLEFQEGDINLVLSKVNEEWLEGECKGKVGIFPKVFVEDC [I29N] was -0.119 ± 0.11; that for LKKGSQVEALFSYEATQPEDLEFQEGDIELVLSKVNEEWLEGECKGKVGIFPKVFVEDC [I29E] was -0.392 ± 0.22.
As to LKKGSQVEALFSYEATQPEDLEFQEGDIWLVLSKVNEEWLEGECKGKVGIFPKVFVEDC [I29W], the abundance fitness stood at 0.005 ± 0.16.
The value for EKKGSQVEALFSYEATQPEDLEFQEGDIILVLSKVNEEWLEGECKGKVGIFPKVFVEDC [L1E] was 0.143 ± 0.28; that for KKKGSQVEALFSYEATQPEDLEFQEGDIILVLSKVNEEWLEGECKGKVGIFPKVFVEDC [L1K] was -0.529 ± 0.49; that for IKKGSQVEALFSYEATQPEDLEFQEGDIILVLSKVNEEWLEGECKGKVGIFPKVFVEDC [L1I] was 0.114 ± 0.29.
In the case of LKKGSQVEALFSYEATQPEDLEFQEGDIILVLSKVNEEWLEGECKGKVGIFPWVFVEDC [K53W] it was -0.808 ± 0.46; in that of LKKGSQVEALFSYERTQPEDLEFQEGDIILVLSKVNEEWLEGECKGKVGIFPKVFVEDC [A15R], -0.417 ± 0.14.
With LKKGSQVEALFSYETTQPEDLEFQEGDIILVLSKVNEEWLEGECKGKVGIFPKVFVEDC [A15T], the abundance fitness was -1.03 ± 0.37.
On to LKKGSQVEALFSYEATQPEDLEFQEGDIILVLSKVNEWWLEGECKGKVGIFPKVFVEDC [E38W], for which the abundance fitness was -0.396 ± 0.24.
In the case of LKKGSQVEALFSYEATQPEDLEFQEGDIILVLSKVNEAWLEGECKGKVGIFPKVFVEDC [E38A] it was -0.329 ± 0.13; in that of LKKGSQVEALFSYEATQPEDLEFQEGDIILVLSFVNEEWLEGECKGKVGIFPKVFVEDC [K34F], -0.459 ± 0.13; in that of LKKGSQVEALFSYEATQPEDLEFQEGDIILVLSIVNEEWLEGECKGKVGIFPKVFVEDC [K34I], 0.456 ± 0.08.
In the case of LKKGSQVEALFSYEATQPEDLEFQEGDIILVLSNVNEEWLEGECKGKVGIFPKVFVEDC [K34N] it was -0.287 ± 0.13; in that of LKKGSQVEALFSYEATQPEDLEFQEGDIILVLSPVNEEWLEGECKGKVGIFPKVFVEDC [K34P], -0.853 ± 0.4.
LKKGSQLEALFSYEATQPEDLEFQEGDIILVLSKVNEEWLEGECKGKVGIFPKVFVEDC [V7L]: the abundance fitness is -0.633 ± 0.24.
In the case of LKKGSQVEALFSYEATQPEDLEFQEGDIILVLSKVNEEWLEGECKGKVGIFPKVFVETC [D58T] it was 0.133 ± 0.16; in that of LKKGSQVEAGFSYEATQPEDLEFQEGDIILVLSKVNEEWLEGECKGKVGIFPKVFVEDC [L10G], -0.57 ± 0.29.
The value for LKKGRQVEALFSYEATQPEDLEFQEGDIILVLSKVNEEWLEGECKGKVGIFPKVFVEDC [S5R] was -0.116 ± 0.14; that for LKKGLQVEALFSYEATQPEDLEFQEGDIILVLSKVNEEWLEGECKGKVGIFPKVFVEDC [S5L] was -0.289 ± 0.12.
The value for LKKGSQVEALFSYEATQPEDLEFQEGDIILVLSKVNEEWLEGECKGKVGIFAKVFVEDC [P52A] was -0.305 ± 0.13; that for LKKGSQVEALFSYEATQPEDLEFQEGDIILVLSKVNEEWLEGECKGKVGIFVKVFVEDC [P52V] was -0.598 ± 0.14; that for LKKGSQVEALFSYEATQPEDLEFQEGDIILVLSKVNEEWLEGECKGKVGIFRKVFVEDC [P52R] was -0.918 ± 0.21.
With LKKGSQVEALFSYEATQPEDLEFQEGDIILVLSKVNEEWLEGECKGKVGMFPKVFVEDC [I50M], the abundance fitness is -0.621 ± 0.31.
As for LKKGSQVEALFSYEATQPEDLEFQEGDIILVLSKVNEEWLEGECKGKVGKFPKVFVEDC [I50K], the abundance fitness was 0.108 ± 0.18.
In the case of LKKGSQVEALFSYEATQPEDLEFQEGDIILVLSKVNEEWLEGECKGKVGSFPKVFVEDC [I50S] it was -0.448 ± 0.14; in that of LKKGSQVEALFSYEATQPEDLEFQEGDIILVLSKVNEEWLEGECKGKEGIFPKVFVEDC [V48E], -0.974 ± 0.44.
Consider LKDGSQVEALFSYEATQPEDLEFQEGDIILVLSKVNEEWLEGECKGKVGIFPKVFVEDC [K3D], for which the abundance fitness is -0.366 ± 0.24.
The value for LKKGSQVEALFSYHATQPEDLEFQEGDIILVLSKVNEEWLEGECKGKVGIFPKVFVEDC [E14H] was 0.236 ± 0.11; that for LKKGSQVEALFSYEATQPEDLEFQWGDIILVLSKVNEEWLEGECKGKVGIFPKVFVEDC [E25W] was -0.78 ± 0.36; that for LKKGSQVEALFSYEATQPEDLEFQVGDIILVLSKVNEEWLEGECKGKVGIFPKVFVEDC [E25V] was -0.043 ± 0.078.
In the case of LKKGSQVEALFSYEATQPEDLEFQEGDIILVLSKVNEEWLEGECKGKVGIFPKVFVQDC [E57Q], the abundance fitness was 0.541 ± 0.16.
On to LKKGSQVEALFSYEATQPEDLEFQEGDIILVNSKVNEEWLEGECKGKVGIFPKVFVEDC [L32N], for which the abundance fitness came to 0.304 ± 0.095.
The value for LKKGSQVEALFSYEATQPEDLEFQEGDIILVASKVNEEWLEGECKGKVGIFPKVFVEDC [L32A] was -0.297 ± 0.14.
The value for LKKGSQVEALFSYEATQPEDLEFQEGDIILVFSKVNEEWLEGECKGKVGIFPKVFVEDC [L32F] was -0.118 ± 0.12.
The value for LKKGSQVEALFSYEATQPEDLEFQEGDIILVLSKENEEWLEGECKGKVGIFPKVFVEDC [V35E] was -1.04 ± 0.48; that for LKKGSQVEALFSYEATQPEDLEFQEGDIILVLSKVNEEWLEGECKYKVGIFPKVFVEDC [G46Y] was -0.352 ± 0.14.
LKKGSQVEALFSYEATQPEDLEFQEGDIILVLSKVNEEWLEGECKIKVGIFPKVFVEDC [G46I]: the abundance fitness was -0.615 ± 0.15.
The value for LKKGSQVEALFSYEATQPEDLEFQEGDIILVLSKVNEEWLEGECKHKVGIFPKVFVEDC [G46H] was -0.84 ± 0.34; that for LKKGSQVEALFSYEATQPEDLEFQEGDIILVLSKVNEEWLEGICKGKVGIFPKVFVEDC [E43I] was -0.567 ± 0.13; that for LKKGSQVEALFSYEATMPEDLEFQEGDIILVLSKVNEEWLEGECKGKVGIFPKVFVEDC [Q17M] was -0.27 ± 0.36.
The value for LKKGSGVEALFSYEATQPEDLEFQEGDIILVLSKVNEEWLEGECKGKVGIFPKVFVEDC [Q6G] was -0.72 ± 0.27.
The value for LKKGSSVEALFSYEATQPEDLEFQEGDIILVLSKVNEEWLEGECKGKVGIFPKVFVEDC [Q6S] was -0.667 ± 0.27.
For LKKGSMVEALFSYEATQPEDLEFQEGDIILVLSKVNEEWLEGECKGKVGIFPKVFVEDC [Q6M], the abundance fitness came to 0.023 ± 0.15.
